Laboratory results: doi:10.1101/2025.01.28.635311 (bioRxiv, 2025)

How the values were obtained:
[1] = target: bovine histone H1, labelled with NT-647-NHS dye (bovine) (UniProt P02253); test: MST
[2] = target: N-terminal cleavage product of SET (human, UniProt Q01105-2 17-175); test: SEC

Chain of bovine histone H1, labelled with NT-647-NHS dye (bovine) (P02253 whole entry): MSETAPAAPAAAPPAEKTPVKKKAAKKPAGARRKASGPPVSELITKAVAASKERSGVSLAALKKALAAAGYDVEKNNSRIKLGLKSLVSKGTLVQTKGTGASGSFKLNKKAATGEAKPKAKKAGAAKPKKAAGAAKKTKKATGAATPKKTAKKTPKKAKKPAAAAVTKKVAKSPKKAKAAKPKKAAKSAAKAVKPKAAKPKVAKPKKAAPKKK

| Kd [1] [nM] | binding result [2] | Molecule |
| --- | --- | --- |
| 3000 | – | SET-FL after cleavage by legumain (cleaved SET-FL) (from UniProt Q01105-2 17-175; Q01105-2 176-277) (complex) |
| 3000 | – | full-length SET (SET-FL, 2–277) (from UniProt Q01105-2 2-277) (natural protein) |
| – | binds | C-terminal cleavage product of SET-FL (domain or fragment, human, UniProt Q01105-2 176-277, looked up) KASRKRQHEEPESFFTWFTDHSDAGADELGEVIKDDIWPNPLQYYLVPDMDDEEGEGEEDDDDDEEEEGLEDIDEEGDEDEGEEDEDDDEGEEGEEDEGEDD |
| – | binds | KASRKRQHEEPESFFTWFTDHSDAGADELGEVIKDDIWPNPLQYYLVPDM (domain or fragment, human, UniProt Q01105-2 176-225, looked up) [C-terminal cleavage product of SETΔC] |
